The series concerns the target C3b (Complement Technology, Cat #A114), labeled with ANS (UniProt P01024).
UniProt P01024, sequence (P01024 whole entry, looked up): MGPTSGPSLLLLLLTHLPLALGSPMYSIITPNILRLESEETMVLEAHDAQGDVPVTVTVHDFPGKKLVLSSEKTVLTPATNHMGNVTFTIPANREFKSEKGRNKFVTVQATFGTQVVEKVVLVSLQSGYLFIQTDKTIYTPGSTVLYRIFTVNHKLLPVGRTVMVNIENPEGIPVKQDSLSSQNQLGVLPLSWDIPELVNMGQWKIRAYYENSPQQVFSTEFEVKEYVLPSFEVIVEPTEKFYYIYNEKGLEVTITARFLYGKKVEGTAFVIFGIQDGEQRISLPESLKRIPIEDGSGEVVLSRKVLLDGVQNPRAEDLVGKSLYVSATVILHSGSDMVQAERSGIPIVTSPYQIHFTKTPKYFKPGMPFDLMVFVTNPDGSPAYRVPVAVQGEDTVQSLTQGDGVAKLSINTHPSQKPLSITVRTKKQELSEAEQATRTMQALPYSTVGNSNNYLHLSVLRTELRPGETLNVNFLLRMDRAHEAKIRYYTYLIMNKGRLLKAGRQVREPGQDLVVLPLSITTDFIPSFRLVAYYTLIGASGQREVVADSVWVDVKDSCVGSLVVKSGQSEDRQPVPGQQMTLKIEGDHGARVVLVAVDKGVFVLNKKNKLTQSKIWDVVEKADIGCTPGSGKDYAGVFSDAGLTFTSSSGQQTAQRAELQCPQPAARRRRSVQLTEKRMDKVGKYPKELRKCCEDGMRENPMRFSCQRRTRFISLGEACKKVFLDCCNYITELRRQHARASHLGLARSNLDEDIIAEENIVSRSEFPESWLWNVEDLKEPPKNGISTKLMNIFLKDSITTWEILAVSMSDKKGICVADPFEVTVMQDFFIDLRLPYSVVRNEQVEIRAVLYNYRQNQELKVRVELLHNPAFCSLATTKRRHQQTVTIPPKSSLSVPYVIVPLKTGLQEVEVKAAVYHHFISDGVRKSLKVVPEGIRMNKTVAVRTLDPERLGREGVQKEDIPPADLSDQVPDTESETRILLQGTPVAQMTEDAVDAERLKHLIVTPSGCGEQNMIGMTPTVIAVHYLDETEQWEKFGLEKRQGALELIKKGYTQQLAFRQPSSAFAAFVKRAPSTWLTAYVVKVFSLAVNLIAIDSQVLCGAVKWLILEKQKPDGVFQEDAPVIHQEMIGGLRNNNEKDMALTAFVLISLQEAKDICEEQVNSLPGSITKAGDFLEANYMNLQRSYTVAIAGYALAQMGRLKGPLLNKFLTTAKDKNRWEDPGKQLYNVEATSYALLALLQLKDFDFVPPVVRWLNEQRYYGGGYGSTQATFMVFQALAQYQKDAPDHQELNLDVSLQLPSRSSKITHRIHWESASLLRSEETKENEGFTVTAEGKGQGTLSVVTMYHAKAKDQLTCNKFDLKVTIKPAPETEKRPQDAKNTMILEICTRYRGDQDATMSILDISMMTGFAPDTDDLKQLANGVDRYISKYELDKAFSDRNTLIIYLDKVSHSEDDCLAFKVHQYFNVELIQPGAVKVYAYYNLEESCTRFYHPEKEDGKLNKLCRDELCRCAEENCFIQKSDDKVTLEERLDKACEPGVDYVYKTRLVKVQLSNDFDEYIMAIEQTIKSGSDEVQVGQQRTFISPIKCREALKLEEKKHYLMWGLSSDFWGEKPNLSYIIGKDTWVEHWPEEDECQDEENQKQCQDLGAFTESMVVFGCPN
As for A240G CFI protein, the “fluorescence cofactor assay: cleavage of ANS-labeled C3b to iC3b (change in RFUs over time), with cofactor CFH, MCP or CR1, against wild type CFI” value is “certain CFI mutations (G119R, A240G, and P553S) were associated with greatly reduced CFI protein function”.

In the case of A300T CFI protein, the “fluorescence cofactor assay: cleavage of ANS-labeled C3b to iC3b (change in RFUs over time), with cofactor CFH, MCP or CR1, against wild type CFI” value is listed as “the A300T mutation appeared to have relatively little impact on CFI function”.

With G119R CFI protein, the “fluorescence cofactor assay: cleavage of ANS-labeled C3b to iC3b (change in RFUs over time), with cofactor CFH, MCP or CR1, against wild type CFI” value was “certain CFI mutations (G119R, A240G, and P553S) were associated with greatly reduced CFI protein function”.

Consider P553S CFI protein, for which the “fluorescence cofactor assay: cleavage of ANS-labeled C3b to iC3b (change in RFUs over time), with cofactor CFH, MCP or CR1, against wild type CFI” value was “certain CFI mutations (G119R, A240G, and P553S) were associated with greatly reduced CFI protein function”.

(Values after patent US20220347265.)
